To fix the notation:
T1: carcinoembryonic antigen (UniProt P06731 35-685)
T1 construct: Bought reagent (Biodesign); also called CEA
T1 sequence: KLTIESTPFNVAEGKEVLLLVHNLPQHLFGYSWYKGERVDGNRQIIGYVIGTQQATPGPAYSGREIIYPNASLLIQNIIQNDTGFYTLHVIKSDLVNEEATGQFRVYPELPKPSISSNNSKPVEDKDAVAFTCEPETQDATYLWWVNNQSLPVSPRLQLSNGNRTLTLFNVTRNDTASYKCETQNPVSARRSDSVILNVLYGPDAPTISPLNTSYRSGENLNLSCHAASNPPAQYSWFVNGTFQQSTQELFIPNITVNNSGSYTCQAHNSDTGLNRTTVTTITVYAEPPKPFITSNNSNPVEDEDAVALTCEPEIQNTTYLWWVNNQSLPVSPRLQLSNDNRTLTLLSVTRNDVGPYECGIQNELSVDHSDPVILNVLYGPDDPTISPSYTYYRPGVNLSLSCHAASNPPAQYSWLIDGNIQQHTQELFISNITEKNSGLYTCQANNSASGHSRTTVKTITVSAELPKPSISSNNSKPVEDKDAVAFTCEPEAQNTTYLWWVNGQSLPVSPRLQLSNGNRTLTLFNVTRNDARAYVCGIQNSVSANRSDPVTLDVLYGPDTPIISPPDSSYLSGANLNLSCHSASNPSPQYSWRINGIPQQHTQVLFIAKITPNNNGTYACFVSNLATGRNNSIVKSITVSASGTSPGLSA

B1: NA06.4 (scFv)
chain: QVKLQQSGAELVKSGGSVKLSCTASGFNIKDSYMHWVRQGPEQGLEWIGWIDPENGDTEYAPKFQGKATFTTDTSSNTAYLQLSSLTSEDTAVYYCNEGTPTGPYYFDYWGQGTTVTVSSGGGGSGGGGSGGGGSENVLTQSPAIVSASPGEKVTITCSASSSVSYMHWFQQKPGTSPKLVIYSTSNLASGVPARFSGSGSGTSYSLTISRMEAEDAATYYCQQRSSYPLTFGAGTKLELKRAATLVSEKQLAEVVANTITPLMKAQSVPGMAVAVIYQGKPHYYTFGKADIAANKPVTPQTLFELGSISKTFTGVLGGDAIARGEISLDDAVTRYWPQLTGKQWQGIRMLDLATYTAGGLPLQVPDEVTDNASLLRFYQNWQPQWKPGTTRLYANASIGLFGALAVKPSGMPYEQAMTTRVLKPLKLDHTWINVPKAEEAHYAWGYRDGKAVRVSPGMLDAQAYGVKTNVQDMANWVMANMAPENVADASLKQGIALAQSRYWRIGSMYQGLGWEMLNWPVEANTVVETSFGNVALAPLPVAEVNPPAPPVKASWVHKTGSTGGFGSYVAFIPEKQIGIVMLANTSYPNPARVEAAYHILEALQ
notes: Variant of the CAB1 scFv-BLA fusion built on NA05.6; Tested as crude lysate after thermolysin treatment; Positions are numbered along the whole CAB1 fusion (pME27)
B2: NA06.2 (scFv)
chain: B1 chain with E42G, V146M, A194D
notes: as for B1
B3: NA06.10 (scFv)
chain: B1 chain with A194D
notes: as for B1
B4: NA06.11 (scFv)
chain: B1 chain with K3Q, V146M, A194D
notes: as for B1
B5: NA06.12 (scFv)
chain: B1 chain with E136Q, V146M
notes: as for B1
B6: NA06.6 (scFv)
chain: B1 chain with K3Q
notes: as for B1
B7: NA05.8 (scFv)
chain: B1 chain with G16T, V37L, V146M, F170Y, V181W, A234G
notes: Variant of the CAB1 scFv-BLA fusion, tested as crude lysate; Positions are numbered along the whole CAB1 fusion (pME27)
B8: NA05.9 (scFv)
chain: B1 chain with K3Q, K13R, S14P, G16T, E42G, E136Q, A234G
notes: as for B7
B9: NA05.12 (scFv)
chain: B1 chain with K3Q, K13R, S14P, G16T, V181W
notes: as for B7
B10: NA05.15 (scFv)
chain: B1 chain with K13R, G16T, V37L, F170Y, V181W, A194D
notes: as for B7
B11: NA05.6 (scFv)
chain: B1 chain with V37L, V146M
notes: Variant of the CAB1 scFv-BLA fusion (plasmid pME27.1), tested as crude E. coli lysate; also called pNA05.6; parent NA05.6

Positions count from the first letter of the chain named.

One experiment concerns the target T1, carcinoembryonic antigen. Description: CEA-coated plate assay on thermolysin-treated lysate, BLA/nitrocefin read-out.
On to B1, for which the binding result is “binds”.
Same read-out and setting: the value for B2 was “binds”; that for B3 was “binds”; that for B4 was “binds”.
The same measure, in the same setting: the value for B5 was “binds”.
As for B6, the binding result is “binds”.

Another experiment deals with T1, carcinoembryonic antigen. Description: plate assay: CEA coated on wells, culture lysate added, bound fusion read by BLA activity on nitrocefin.
Consider B7, for which the binding result is recorded as “binds”.
For the molecule B8, the binding result is listed as “binds”.
As for B9, the binding result is recorded as “binds”.
On the same count and under the same terms, the value for B10 was “binds”; that for B11 was “binds”.
